Experimental data as given in patent publication US10800847.

Assays:
[1] = molecular target: HLA-B*2705 (B27) single antigen on Luminex beads (human); experiment: Luminex single antigen, iBeads (#6), IVIg 1:4
[2] = molecular target: HLA-B*2708 (B27) single antigen on Luminex beads (human); experiment: Luminex single antigen, iBeads (#6), IVIg 1:4
[3] = molecular target: HLA-B*3501 (B35) single antigen on Luminex beads (human); experiment: Luminex single antigen, iBeads (#6), IVIg 1:4
[4] = molecular target: HLA-B*3701 (B37) single antigen on Luminex beads (human); experiment: Luminex single antigen, iBeads (#6), IVIg 1:4
[5] = molecular target: HLA-B*3801 (B38) single antigen on Luminex beads (human); experiment: Luminex single antigen, iBeads (#6), IVIg 1:4
[6] = molecular target: HLA-B*3901 (B39) single antigen on Luminex beads (human); experiment: Luminex single antigen, iBeads (#6), IVIg 1:4
[7] = molecular target: HLA-B*4001 (B60) single antigen on Luminex beads (human); experiment: Luminex single antigen, iBeads (#6), IVIg 1:4
[8] = molecular target: HLA-B*4002 (B61) single antigen on Luminex beads (human); experiment: Luminex single antigen, iBeads (#6), IVIg 1:4
[9] = molecular target: HLA-B*4006 (B61) single antigen on Luminex beads (human); experiment: Luminex single antigen, iBeads (#6), IVIg 1:4
[10] = molecular target: HLA-B*4101 (B41) single antigen on Luminex beads (human); experiment: Luminex single antigen, iBeads (#6), IVIg 1:4
[11] = molecular target: HLA-B*4201 (B42) single antigen on Luminex beads (human); experiment: Luminex single antigen, iBeads (#6), IVIg 1:4
[12] = molecular target: HLA-B*4402 (B44) single antigen on Luminex beads (human); experiment: Luminex single antigen, iBeads (#6), IVIg 1:4
[13] = molecular target: HLA-B*4403 (B44) single antigen on Luminex beads (human); experiment: Luminex single antigen, iBeads (#6), IVIg 1:4
[14] = molecular target: HLA-B*4501 (B45) single antigen on Luminex beads (human); experiment: Luminex single antigen, iBeads (#6), IVIg 1:4
[15] = molecular target: HLA-B*4601 (B46) single antigen on Luminex beads (human); experiment: Luminex single antigen, iBeads (#6), IVIg 1:4
[16] = molecular target: HLA-B*4701 (B47) single antigen on Luminex beads (human); experiment: Luminex single antigen, iBeads (#6), IVIg 1:4
[17] = molecular target: Albumin on negative control beads (serum albumin, HSA/BSA) (human or bovine); experiment: Luminex, iBead MFI against regular bead MFI, 1:4
[18] = molecular target: HLA-B*2708 (B27) single antigen on Luminex beads (human); experiment: Luminex single antigen, regular beads (#7), IVIg 1:4
[19] = molecular target: HLA-B*3501 (B35) single antigen on Luminex beads (human); experiment: as above
[20] = molecular target: HLA-B*3701 (B37) single antigen on Luminex beads (human); experiment: as above
[21] = molecular target: HLA-B*3801 (B38) single antigen on Luminex beads (human); experiment: as above
[22] = molecular target: HLA-B*3901 (B39) single antigen on Luminex beads (human); experiment: as above
[23] = molecular target: HLA-B*4001 (B60) single antigen on Luminex beads (human); experiment: as above
[24] = molecular target: HLA-B*4006 (B61) single antigen on Luminex beads (human); experiment: as above
[25] = molecular target: HLA-B*4101 (B41) single antigen on Luminex beads (human); experiment: as above
[26] = molecular target: HLA-B*4201 (B42) single antigen on Luminex beads (human); experiment: as above
[27] = molecular target: HLA-B*4402 (B44) single antigen on Luminex beads (human); experiment: as above
[28] = molecular target: HLA-B*4403 (B44) single antigen on Luminex beads (human); experiment: as above
[29] = molecular target: HLA-B*4501 (B45) single antigen on Luminex beads (human); experiment: as above
[30] = molecular target: HLA-B*4601 (B46) single antigen on Luminex beads (human); experiment: as above
[31] = molecular target: HLA-B*4701 (B47) single antigen on Luminex beads (human); experiment: as above
[32] = molecular target: Albumin on negative control beads (serum albumin, HSA/BSA) (human or bovine); experiment: Luminex single antigen beads, regular beads (#7), 1:4
[33] = molecular target: HLA-A*0301 (A3) on single antigen beads (human) (UniProt P04439); experiment: as above
[34] = molecular target: HLA-B*2705 (B27) single antigen on Luminex beads (human); experiment: Luminex single antigen, iBead vs regular bead, IVIg 1:4
[35] = molecular target: HLA-B*2708 (B27) single antigen on Luminex beads (human); experiment: as above
[36] = molecular target: HLA-B*3501 (B35) single antigen on Luminex beads (human); experiment: as above
[37] = molecular target: HLA-B*3701 (B37) single antigen on Luminex beads (human); experiment: as above
[38] = molecular target: HLA-B*3801 (B38) single antigen on Luminex beads (human); experiment: as above
[39] = molecular target: HLA-B*3901 (B39) single antigen on Luminex beads (human); experiment: as above
[40] = molecular target: HLA-B*4001 (B60) single antigen on Luminex beads (human); experiment: as above
[41] = molecular target: HLA-B*4002 (B61) single antigen on Luminex beads (human); experiment: as above
[42] = molecular target: HLA-B*4006 (B61) single antigen on Luminex beads (human); experiment: as above
[43] = molecular target: HLA-B*4101 (B41) single antigen on Luminex beads (human); experiment: as above
[44] = molecular target: HLA-B*4402 (B44) single antigen on Luminex beads (human); experiment: as above
[45] = molecular target: HLA-B*4403 (B44) single antigen on Luminex beads (human); experiment: as above
[46] = molecular target: HLA-B*4601 (B46) single antigen on Luminex beads (human); experiment: as above
[47] = molecular target: HLA-B*4701 (B47) single antigen on Luminex beads (human); experiment: as above

Sandoglobulin (IVIg, Novartis, Basel, Switzerland) (antibody)
MFI [1]: 377 MFI | MFI [2]: 302 MFI | MFI [3]: 352 MFI | MFI [4]: 740 MFI | MFI [5]: 248 MFI | MFI [6]: 0 MFI | MFI [7]: 409 MFI | MFI [8]: 242 MFI | MFI [9]: 359 MFI | MFI [10]: 182 MFI | MFI [11]: 86 MFI | MFI [12]: 461 MFI | MFI [13]: 413 MFI | MFI [14]: 612 MFI | MFI [15]: 473 MFI | MFI [16]: 655 MFI | Difference % (iBead against regular bead) [17]: -44% | MFI [18]: 13 MFI | MFI [19]: 243 MFI | MFI [20]: 1100 MFI | MFI [21]: 254 MFI | MFI [22]: 0 MFI | MFI [23]: 237 MFI | MFI [24]: 765 MFI | MFI [25]: 32 MFI | MFI [26]: 0 MFI | MFI [27]: 683 MFI | MFI [28]: 284 MFI | MFI [29]: 272 MFI | MFI [30]: 537 MFI | MFI [31]: 355 MFI | MFI [32]: 1200 MFI | MFI [33]: 2 MFI | Difference % (iBead against regular bead MFI) [34]: 167% | Difference % (iBead against regular bead MFI) [35]: 2220% | Difference % (iBead against regular bead MFI) [36]: 45% | Difference % (iBead against regular bead MFI) [37]: -33% | Difference % (iBead against regular bead MFI) [38]: -2% | Difference % (iBead against regular bead MFI) [39]: 0% | Difference % (iBead against regular bead MFI) [40]: 73% | Difference % (iBead against regular bead MFI) [41]: 81% | Difference % (iBead against regular bead MFI) [42]: -53% | Difference % (iBead against regular bead MFI) [43]: 469% | Difference % (iBead against regular bead MFI) [44]: -33% | Difference % (iBead against regular bead MFI) [45]: 45% | Difference % (iBead against regular bead MFI) [46]: -12% | Difference % (iBead against regular bead MFI) [47]: 85%
